This note sets out measurements from the supplement of paper PMC10567573.

The labels stand for the following.
B1: FBF1 (parent)
chain: YQRPQDSEDMWGDEDFTFGAYQPT
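Also: lentivirally expressed fusions sorted by FACS into six bins by GFP to DsRed ratio, PSI derived from sequencing read proportions per bin multiplied by bin number.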

The data set covers variants of B1. The data set can be described thus: protein stability index of a GFP-peptide fusion (GPS, HEK-293T) (PSI 1-6); higher = more stable. As to conditions: c terminus: a fixed tail appended.
As to YQRPQDSEDMWGCEDFTFGAYQPT, the protein stability index stood at 1.74.

For the variant YQRPQDSEDMWGPEDFTFGAYQPT, the protein stability index amounted to 1.73.

With YQRPQDSEDMWGVEDFTFGAYQPT, the protein stability index was 1.8.

In the case of YQRPQDSEDMWGTEDFTFGAYQPT, the protein stability index turned out to be 1.77. The figure for YQRPQDSEDMWGNEDFTFGAYQPT is 2.07; for YQRPQDSEDMWGYEDFTFGAYQPT it is 1.72. The figure for YQRPQDSEDMWGREDFTFGAYQPT is 2.89. The same measure for YQRPQDSEDMWGKEDFTFGAYQPT: 2.52; for YQRPQDSEDMWGGEDFTFGAYQPT: 2.28. With YQRPQDSEDMWGFEDFTFGAYQPT, the protein stability index is 2.18. The same measure for YQRPQDSEDMWGIEDFTFGAYQPT: 2.13; for YQRPQDSEDMWGWEDFTFGAYQPT: 1.53; for YQRPQDSEDMWGLEDFTFGAYQPT: 2.45.

Turning to YQRPQDSEDMWGQEDFTFGAYQPT, the protein stability index was 1.79. The figure for YQRPQDSEDMWGAEDFTFGAYQPT is 2.1; for YQRPQDSEDMWGHEDFTFGAYQPT it is 1.76; for YQRPQDSEDMWGSEDFTFGAYQPT it is 1.85. The same measure for YQRPQDSEDMWGMEDFTFGAYQPT: 2.32; for YQRPQDSEDMWGEEDFTFGAYQPT: 3.13. The same measure for YQRPQDSEDHWGDEDFTFGAYQPT: 3.47; for YQRPQDSEDPWGDEDFTFGAYQPT: 3.34. With YQRPQDSEDEWGDEDFTFGAYQPT, the protein stability index is 4.53. The figure for YQRPQDSEDIWGDEDFTFGAYQPT is 2.39.

For YQRPQDSEDGWGDEDFTFGAYQPT, the protein stability index came to 3.96. The figure for YQRPQDSEDAWGDEDFTFGAYQPT is 4.18. The figure for YQRPQDSEDQWGDEDFTFGAYQPT is 3.71; for YQRPQDSEDNWGDEDFTFGAYQPT it is 4.06. The same measure for YQRPQDSEDRWGDEDFTFGAYQPT: 3.66; for YQRPQDSEDVWGDEDFTFGAYQPT: 2.75; for YQRPQDSEDKWGDEDFTFGAYQPT: 3.72. In the case of YQRPQDSEDSWGDEDFTFGAYQPT, the protein stability index turned out to be 3.5. The same measure for YQRPQDSEDFWGDEDFTFGAYQPT: 1.86; for YQRPQDSEDWWGDEDFTFGAYQPT: 2.81; for YQRPQDSEDTWGDEDFTFGAYQPT: 3.73.

With YQRPQDSEDYWGDEDFTFGAYQPT, the protein stability index stood at 3.11. The figure for YQRPQDSEDLWGDEDFTFGAYQPT is 2.25; for YQRPQDSEDDWGDEDFTFGAYQPT it is 4.06; for YQRPQDSEDCWGDEDFTFGAYQPT it is 3.23. Take YQRPQDSEDMWGDEDFPFGAYQPT: the protein stability index was found to be 2.93.

On to YQRPQDSEDMWGDEDFMFGAYQPT, for which the protein stability index came out at 2.59. The figure for YQRPQDSEDMWGDEDFYFGAYQPT is 2.1; for YQRPQDSEDMWGDEDFQFGAYQPT it is 3.44; for YQRPQDSEDMWGDEDFDFGAYQPT it is 3.37.

Regarding YQRPQDSEDMWGDEDFGFGAYQPT, the protein stability index was 3.01.

Turning to YQRPQDSEDMWGDEDFIFGAYQPT, the protein stability index turned out to be 2.36. The figure for YQRPQDSEDMWGDEDFCFGAYQPT is 2.65. YQRPQDSEDMWGDEDFFFGAYQPT: the protein stability index was determined as 2.53.

As to YQRPQDSEDMWGDEDFWFGAYQPT, the protein stability index turned out to be 1.84.

As to YQRPQDSEDMWGDEDFLFGAYQPT, the protein stability index worked out at 2.31. The figure for YQRPQDSEDMWGDEDFSFGAYQPT is 2.65; for YQRPQDSEDMWGDEDFNFGAYQPT it is 3.04; for YQRPQDSEDMWGDEDFRFGAYQPT it is 2.68. The figure for YQRPQDSEDMWGDEDFAFGAYQPT is 3.46; for YQRPQDSEDMWGDEDFEFGAYQPT it is 3.04; for YQRPQDSEDMWGDEDFHFGAYQPT it is 2.86. On to YQRPQDSEDMWGDEDFKFGAYQPT, for which the protein stability index was found to be 2.68. The same measure for YQRPQDSEDMWGDEDFVFGAYQPT: 3.07. The same measure for YQRPQDSEDMWGDGDFTFGAYQPT: 1.88; for YQRPQDSEDMWGDNDFTFGAYQPT: 1.8.

With YQRPQDSEDMWGDKDFTFGAYQPT, the protein stability index was 1.46. The same measure for YQRPQDSEDMWGDVDFTFGAYQPT: 2.36; for YQRPQDSEDMWGDRDFTFGAYQPT: 2.05; for YQRPQDSEDMWGDLDFTFGAYQPT: 1.66.

Regarding YQRPQDSEDMWGDFDFTFGAYQPT, the protein stability index is 1.78.

For YQRPQDSEDMWGDCDFTFGAYQPT, the protein stability index worked out at 2.11.

For YQRPQDSEDMWGDWDFTFGAYQPT, the protein stability index stood at 2.21.

In the case of YQRPQDSEDMWGDDDFTFGAYQPT, the protein stability index came out at 2.58. The figure for YQRPQDSEDMWGDADFTFGAYQPT is 1.67; for YQRPQDSEDMWGDQDFTFGAYQPT it is 1.94; for YQRPQDSEDMWGDIDFTFGAYQPT it is 1.82. The figure for YQRPQDSEDMWGDPDFTFGAYQPT is 2.03.

Take YQRPQDSEDMWGDMDFTFGAYQPT: the protein stability index came out at 1.26. For the variant YQRPQDSEDMWGDYDFTFGAYQPT, the protein stability index was 2.27. The same measure for YQRPQDSEDMWGDTDFTFGAYQPT: 2.15; for YQRPQDSEDMWGDHDFTFGAYQPT: 2.84; for YQRPQDSEDMWGDSDFTFGAYQPT: 2.43.

On to YQRPQDSEDMPGDEDFTFGAYQPT, for which the protein stability index came out at 4.87. The same measure for YQRPQDSEDMTGDEDFTFGAYQPT: 4.33; for YQRPQDSEDMLGDEDFTFGAYQPT: 4.13; for YQRPQDSEDMHGDEDFTFGAYQPT: 4.54.

Consider YQRPQDSEDMEGDEDFTFGAYQPT, for which the protein stability index amounted to 4.5. The same measure for YQRPQDSEDMDGDEDFTFGAYQPT: 4.54; for YQRPQDSEDMVGDEDFTFGAYQPT: 4.25.

Regarding YQRPQDSEDMKGDEDFTFGAYQPT, the protein stability index was 4.27. Consider YQRPQDSEDMRGDEDFTFGAYQPT, for which the protein stability index is 4.43. Take YQRPQDSEDMFGDEDFTFGAYQPT: the protein stability index worked out at 3.83. Consider YQRPQDSEDMCGDEDFTFGAYQPT, for which the protein stability index worked out at 4.55. The same measure for YQRPQDSEDMIGDEDFTFGAYQPT: 4.19; for YQRPQDSEDMMGDEDFTFGAYQPT: 4.13.

For YQRPQDSEDMSGDEDFTFGAYQPT, the protein stability index worked out at 4.79. The figure for YQRPQDSEDMNGDEDFTFGAYQPT is 4.44; for YQRPQDSEDMQGDEDFTFGAYQPT it is 4.78; for YQRPQDSEDMAGDEDFTFGAYQPT it is 4.45. The figure for YQRPQDSEDMGGDEDFTFGAYQPT is 4.67.
